Test results: paper PMC9482650, “Quantitative fragmentomics allow affinity mapping of interactomes” (Nature Communications, 2022)

T1: RAPGEF6, Q8TEU7
T1 sequence (Q8TEU7 525-625, limits assumed, looked up): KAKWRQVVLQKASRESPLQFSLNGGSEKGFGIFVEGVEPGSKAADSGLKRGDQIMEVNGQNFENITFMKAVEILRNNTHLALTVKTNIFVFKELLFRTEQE

T2: PTPN13_1, Q12923
T2 sequence (Q12923 1088-1188, limits assumed, looked up): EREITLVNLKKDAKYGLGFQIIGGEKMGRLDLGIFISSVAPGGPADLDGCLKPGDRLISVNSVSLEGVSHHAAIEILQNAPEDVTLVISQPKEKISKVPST

T3: HTRA4, P83105
T3 sequence (P83105 378-476, limits assumed, looked up): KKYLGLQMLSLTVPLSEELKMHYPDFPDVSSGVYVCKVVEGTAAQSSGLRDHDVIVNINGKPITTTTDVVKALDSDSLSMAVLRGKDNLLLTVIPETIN

T4: PDZD7_3, Q9H5P4
T4 sequence (Q9H5P4 857-944, limits assumed, looked up): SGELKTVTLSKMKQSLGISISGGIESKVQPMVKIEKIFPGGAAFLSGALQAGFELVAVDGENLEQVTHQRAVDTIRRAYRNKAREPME

T5: RHPN1, Q8TCX5
T5 sequence (Q8TCX5 508-602, limits assumed, looked up): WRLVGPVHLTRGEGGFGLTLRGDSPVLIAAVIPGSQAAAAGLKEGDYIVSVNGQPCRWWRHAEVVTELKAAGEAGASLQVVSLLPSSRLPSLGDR

T6: TIAM2, Q8IVF5
T6 sequence (Q8IVF5 885-986, limits assumed, looked up): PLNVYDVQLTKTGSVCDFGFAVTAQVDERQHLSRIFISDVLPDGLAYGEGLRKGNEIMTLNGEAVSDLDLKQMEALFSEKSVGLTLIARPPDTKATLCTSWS

T7: FRMPD1, Q5SYB0
T7 sequence (Q5SYB0 52-145, limits assumed, looked up): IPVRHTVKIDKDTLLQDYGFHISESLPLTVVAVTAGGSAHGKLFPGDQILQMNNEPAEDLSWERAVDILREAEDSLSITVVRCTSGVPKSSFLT

T8: SIPA1L2, Q9P2F8
T8 sequence (Q9P2F8 945-1036, limits assumed, looked up): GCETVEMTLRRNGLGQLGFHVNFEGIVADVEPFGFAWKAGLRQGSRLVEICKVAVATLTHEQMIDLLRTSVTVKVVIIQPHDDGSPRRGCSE

T9: DVL3, Q92997
T9 sequence (Q92997 244-331, limits assumed, looked up): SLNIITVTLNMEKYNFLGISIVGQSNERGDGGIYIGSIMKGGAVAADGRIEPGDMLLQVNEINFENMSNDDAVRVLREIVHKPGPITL

T10: APBA3_1, O96018
T10 sequence (O96018 389-490, limits assumed, looked up): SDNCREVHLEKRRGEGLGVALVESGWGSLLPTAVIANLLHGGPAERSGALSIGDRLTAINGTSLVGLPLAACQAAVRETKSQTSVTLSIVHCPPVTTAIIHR

T11: SNTG2, Q9NY99
T11 sequence (Q9NY99 68-166, limits assumed, looked up): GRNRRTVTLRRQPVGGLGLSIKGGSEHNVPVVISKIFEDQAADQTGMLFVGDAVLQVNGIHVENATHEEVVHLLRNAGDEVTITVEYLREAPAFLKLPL

B1: KCNA7, Q96RP8 (peptide)
chain: PPGKHLVTEV

The binders below were run against MAGI2_6, Q86UL8 (assay: holdup assay). Settings: plain residues with an end cap or a label only (N-terminal biotin on a linker: ado-ado).
Design: key: below the threshold = too weak to quantify, mostly under pKd 3.1 to 4

MAGI2_6, Q86UL8, sequence (Q86UL8 1141-1229): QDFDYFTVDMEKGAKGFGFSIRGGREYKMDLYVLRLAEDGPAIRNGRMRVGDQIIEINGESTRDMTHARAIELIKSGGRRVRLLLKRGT

| pKd | Binder |
| --- | --- |
| 4.51 | B1 |

What follows are binders tested against DLG2_3, Q15700 (assay: holdup assay). Settings: plain residues with an end cap or a label only (N-terminal biotin on a linker: ado-ado).
Design: key: below the threshold = too weak to quantify, mostly under pKd 3.1 to 4

| pKd | Binder |
| --- | --- |
| 4.71 | B1 |

What follows are binders tested against GRASP, Q7Z6J2 (assay: holdup assay). Settings: plain residues with an end cap or a label only (N-terminal biotin on a linker: ado-ado).
Design: key: below the threshold = too weak to quantify, mostly under pKd 3.1 to 4

GRASP, Q7Z6J2, sequence (Q7Z6J2 96-193): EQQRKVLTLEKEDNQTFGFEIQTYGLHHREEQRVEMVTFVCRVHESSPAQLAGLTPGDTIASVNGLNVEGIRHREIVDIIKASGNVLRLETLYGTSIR

| pKd | Binder |
| --- | --- |
| 4.6 | B1 |

What follows are binders tested against FRMPD2_2, Q68DX3 (assay: holdup assay). Settings: plain residues with an end cap or a label only (N-terminal biotin on a linker: ado-ado).
Design: key: below the threshold = too weak to quantify, mostly under pKd 3.1 to 4

FRMPD2_2, Q68DX3, sequence (Q68DX3 944-1038): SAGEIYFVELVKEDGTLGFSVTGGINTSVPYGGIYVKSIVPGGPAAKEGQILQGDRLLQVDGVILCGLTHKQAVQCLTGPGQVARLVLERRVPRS

| pKd | Binder |
| --- | --- |
| 4.51 | B1 |

What follows are binders tested against ARHGEF12, Q9NZN5-2 (assay: holdup assay). Settings: plain residues with an end cap or a label only (N-terminal biotin on a linker: ado-ado).
Design: key: below the threshold = too weak to quantify, mostly under pKd 3.1 to 4

ARHGEF12, Q9NZN5-2, sequence (Q9NZN5 other isoform, or with tags, fused parts or gaps): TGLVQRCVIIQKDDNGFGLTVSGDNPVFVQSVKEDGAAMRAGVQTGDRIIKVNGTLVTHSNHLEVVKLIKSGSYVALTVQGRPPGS

| pKd | Binder |
| --- | --- |
| 5.22 | B1 |

Each binder was assayed against MAGI2_3, Q86UL8 (assay: holdup assay). Settings: plain residues with an end cap or a label only (N-terminal biotin on a linker: ado-ado).
Design: key: below the threshold = too weak to quantify, mostly under pKd 3.1 to 4

MAGI2_3, Q86UL8, sequence (Q86UL8 600-682): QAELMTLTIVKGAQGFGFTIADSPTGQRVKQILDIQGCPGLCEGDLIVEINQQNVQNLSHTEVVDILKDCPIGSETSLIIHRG

| pKd | Binder |
| --- | --- |
| 4.22 | B1 |

What follows are binders tested against LNX1_2, Q8TBB1 (assay: holdup assay). Settings: plain residues with an end cap or a label only (N-terminal biotin on a linker: ado-ado).
Design: key: below the threshold = too weak to quantify, mostly under pKd 3.1 to 4

LNX1_2, Q8TBB1, sequence (Q8TBB1 371-470): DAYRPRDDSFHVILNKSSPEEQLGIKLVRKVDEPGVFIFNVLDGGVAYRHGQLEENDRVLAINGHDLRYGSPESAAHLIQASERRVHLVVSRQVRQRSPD

| pKd | Binder |
| --- | --- |
| 3.53 | B1 |

The binders below were run against T1, RAPGEF6, Q8TEU7 (assay: holdup assay). Settings: plain residues with an end cap or a label only (N-terminal biotin on a linker: ado-ado).
Design: key: below the threshold = too weak to quantify, mostly under pKd 3.1 to 4

| pKd | Binder |
| --- | --- |
| 3.52 | B1 |

These binders were tested against T2, PTPN13_1, Q12923 (assay: holdup assay). Settings: plain residues with an end cap or a label only (N-terminal biotin on a linker: ado-ado).
Design: key: below the threshold = too weak to quantify, mostly under pKd 3.1 to 4

| pKd | Binder |
| --- | --- |
| below the threshold | B1 |

These binders were tested against T3, HTRA4, P83105 (assay: holdup assay). Settings: plain residues with an end cap or a label only (N-terminal biotin on a linker: ado-ado).
Design: key: below the threshold = too weak to quantify, mostly under pKd 3.1 to 4

| pKd | Binder |
| --- | --- |
| 4.61 | B1 |

Each binder was assayed against T4, PDZD7_3, Q9H5P4 (assay: holdup assay). Settings: plain residues with an end cap or a label only (N-terminal biotin on a linker: ado-ado).
Design: key: below the threshold = too weak to quantify, mostly under pKd 3.1 to 4

| pKd | Binder |
| --- | --- |
| 5.2 | B1 |

Each binder was assayed against FRMPD2_1, Q68DX3 (assay: holdup assay). Settings: plain residues with an end cap or a label only (N-terminal biotin on a linker: ado-ado).
Design: key: below the threshold = too weak to quantify, mostly under pKd 3.1 to 4

FRMPD2_1, Q68DX3, sequence (Q68DX3 770-861): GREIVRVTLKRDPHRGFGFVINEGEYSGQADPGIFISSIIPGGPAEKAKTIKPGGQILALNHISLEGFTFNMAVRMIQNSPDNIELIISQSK

| pKd | Binder |
| --- | --- |
| below the threshold | B1 |

What follows are binders tested against LNX1_1, Q8TBB1 (assay: holdup assay). Settings: plain residues with an end cap or a label only (N-terminal biotin on a linker: ado-ado).
Design: key: below the threshold = too weak to quantify, mostly under pKd 3.1 to 4

LNX1_1, Q8TBB1, sequence (Q8TBB1 261-371): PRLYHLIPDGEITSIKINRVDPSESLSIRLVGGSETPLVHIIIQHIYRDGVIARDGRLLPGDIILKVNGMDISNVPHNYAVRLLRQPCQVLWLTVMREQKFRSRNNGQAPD

| pKd | Binder |
| --- | --- |
| 4.22 | B1 |

Each binder was assayed against T5, RHPN1, Q8TCX5 (assay: holdup assay). Settings: plain residues with an end cap or a label only (N-terminal biotin on a linker: ado-ado).
Design: key: below the threshold = too weak to quantify, mostly under pKd 3.1 to 4

| pKd | Binder |
| --- | --- |
| 4.37 | B1 |

The binders below were run against FRMPD4, Q14CM0 (assay: holdup assay). Settings: plain residues with an end cap or a label only (N-terminal biotin on a linker: ado-ado).
Design: key: below the threshold = too weak to quantify, mostly under pKd 3.1 to 4

FRMPD4, Q14CM0, sequence (Q14CM0 67-160): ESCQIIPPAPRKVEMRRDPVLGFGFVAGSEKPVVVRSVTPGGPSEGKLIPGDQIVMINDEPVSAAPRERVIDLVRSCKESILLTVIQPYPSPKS

| pKd | Binder |
| --- | --- |
| below the threshold | B1 |

These binders were tested against GRIP2_4, Q9C0E4 (assay: holdup assay). Settings: plain residues with an end cap or a label only (N-terminal biotin on a linker: ado-ado).
Design: key: below the threshold = too weak to quantify, mostly under pKd 3.1 to 4

GRIP2_4, Q9C0E4, sequence (Q9C0E4 446-548): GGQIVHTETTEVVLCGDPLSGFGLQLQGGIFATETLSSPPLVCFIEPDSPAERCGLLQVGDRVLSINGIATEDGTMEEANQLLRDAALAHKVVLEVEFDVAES

| pKd | Binder |
| --- | --- |
| below the threshold | B1 |

Each binder was assayed against NHERF4_4, Q86UT5 (assay: holdup assay). Settings: plain residues with an end cap or a label only (N-terminal biotin on a linker: ado-ado).
Design: key: below the threshold = too weak to quantify, mostly under pKd 3.1 to 4

NHERF4_4, Q86UT5, sequence (Q86UT5 464-550): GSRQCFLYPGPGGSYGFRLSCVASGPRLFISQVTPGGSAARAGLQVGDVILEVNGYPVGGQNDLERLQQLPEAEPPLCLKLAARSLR

| pKd | Binder |
| --- | --- |
| below the threshold | B1 |

The binders below were run against Inadl_8, Q8NI35 (assay: holdup assay). Settings: plain residues with an end cap or a label only (N-terminal biotin on a linker: ado-ado).
Design: key: below the threshold = too weak to quantify, mostly under pKd 3.1 to 4

Inadl_8, Q8NI35, sequence (Q8NI35 1425-1530): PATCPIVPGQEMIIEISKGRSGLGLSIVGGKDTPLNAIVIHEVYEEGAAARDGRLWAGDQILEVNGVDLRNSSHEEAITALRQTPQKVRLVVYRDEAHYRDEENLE

| pKd | Binder |
| --- | --- |
| 3.98 | B1 |

Each binder was assayed against Inadl_6, Q8NI35 (assay: holdup assay). Settings: plain residues with an end cap or a label only (N-terminal biotin on a linker: ado-ado).
Design: key: below the threshold = too weak to quantify, mostly under pKd 3.1 to 4

Inadl_6, Q8NI35, sequence (Q8NI35 1058-1167): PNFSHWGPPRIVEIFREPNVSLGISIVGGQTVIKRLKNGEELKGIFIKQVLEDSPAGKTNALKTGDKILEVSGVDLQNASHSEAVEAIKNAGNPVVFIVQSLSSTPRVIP

| pKd | Binder |
| --- | --- |
| 3.56 | B1 |

Each binder was assayed against FRMPD2_3, Q68DX3 (assay: holdup assay). Settings: plain residues with an end cap or a label only (N-terminal biotin on a linker: ado-ado).
Design: key: below the threshold = too weak to quantify, mostly under pKd 3.1 to 4

FRMPD2_3, Q68DX3, sequence (Q68DX3 1073-1166): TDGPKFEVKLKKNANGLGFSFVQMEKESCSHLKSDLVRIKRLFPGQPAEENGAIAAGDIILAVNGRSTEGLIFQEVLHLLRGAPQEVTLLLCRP

| pKd | Binder |
| --- | --- |
| below the threshold | B1 |

The binders below were run against T6, TIAM2, Q8IVF5 (assay: holdup assay). Settings: plain residues with an end cap or a label only (N-terminal biotin on a linker: ado-ado).
Design: key: below the threshold = too weak to quantify, mostly under pKd 3.1 to 4

| pKd | Binder |
| --- | --- |
| 4.01 | B1 |

Each binder was assayed against PDZRN4_1, Q6ZMN7 (assay: holdup assay). Settings: plain residues with an end cap or a label only (N-terminal biotin on a linker: ado-ado).
Design: key: below the threshold = too weak to quantify, mostly under pKd 3.1 to 4

PDZRN4_1, Q6ZMN7, sequence (Q6ZMN7 213-318): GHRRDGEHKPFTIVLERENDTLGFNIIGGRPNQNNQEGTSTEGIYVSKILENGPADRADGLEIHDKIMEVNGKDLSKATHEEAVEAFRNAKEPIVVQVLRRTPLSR

| pKd | Binder |
| --- | --- |
| below the threshold | B1 |

The binders below were run against T7, FRMPD1, Q5SYB0 (assay: holdup assay). Settings: plain residues with an end cap or a label only (N-terminal biotin on a linker: ado-ado).
Design: key: below the threshold = too weak to quantify, mostly under pKd 3.1 to 4

| pKd | Binder |
| --- | --- |
| below the threshold | B1 |

Each binder was assayed against T8, SIPA1L2, Q9P2F8 (assay: holdup assay). Settings: plain residues with an end cap or a label only (N-terminal biotin on a linker: ado-ado).
Design: key: below the threshold = too weak to quantify, mostly under pKd 3.1 to 4

| pKd | Binder |
| --- | --- |
| below the threshold | B1 |

Each binder was assayed against T9, DVL3, Q92997 (assay: holdup assay). Settings: plain residues with an end cap or a label only (N-terminal biotin on a linker: ado-ado).
Design: key: below the threshold = too weak to quantify, mostly under pKd 3.1 to 4

| pKd | Binder |
| --- | --- |
| below the threshold | B1 |

The binders below were run against T10, APBA3_1, O96018 (assay: holdup assay). Settings: plain residues with an end cap or a label only (N-terminal biotin on a linker: ado-ado).
Design: key: below the threshold = too weak to quantify, mostly under pKd 3.1 to 4

| pKd | Binder |
| --- | --- |
| below the threshold | B1 |

Each binder was assayed against T11, SNTG2, Q9NY99 (assay: holdup assay). Settings: plain residues with an end cap or a label only (N-terminal biotin on a linker: ado-ado).
Design: key: below the threshold = too weak to quantify, mostly under pKd 3.1 to 4

| pKd | Binder |
| --- | --- |
| below the threshold | B1 |
